Assay results reported in US20180355014A1 (JUNO THERAPEUTICS, published 2018).

B1: IIFWVKRGH (SEQ ID NO: 65) (peptide)
peptide: IIFWVKRGH
notes: synthetic 9-mer; the entry already carries the mutation
B2: IIFWVQRGN (SEQ ID NO: 85) (peptide)
peptide: IIFWVQRGN
notes: synthetic 9-mer; the entry already carries the mutations
B3: IIFWVQRGS (SEQ ID NO: 77) (peptide)
peptide: IIFWVQRGS
notes: as for B2
B4: FIIFWVKRG (SEQ ID NO: 18) (peptide)
peptide: FIIFWVKRG
notes: synthetic 9-mer
B5: FIIFWVLRG (SEQ ID NO: 32) (peptide)
peptide: FIIFWVLRG
notes: as for B1
B6: FIIFWVQRG (SEQ ID NO: 52) (peptide)
peptide: FIIFWVQRG
notes: as for B1
B7: FIIFWVSRG (SEQ ID NO: 25) (peptide)
peptide: FIIFWVSRG
notes: as for B1
B8: IFWVKRGRK (SEQ ID NO: 20) (peptide)
peptide: IFWVKRGRK
notes: synthetic 9-mer
B9: IFWVLRGRK (SEQ ID NO: 34) (peptide)
peptide: IFWVLRGRK
notes: as for B1
B10: IFWVQRGSK (SEQ ID NO: 78) (peptide)
peptide: IFWVQRGSK
notes: as for B2
B11: AFIIFWVKR (SEQ ID NO: 17) (peptide)
peptide: AFIIFWVKR
notes: synthetic 9-mer
B12: AFIIFWVQR (SEQ ID NO: 51) (peptide)
peptide: AFIIFWVQR
notes: as for B1
B13: AFIIFWVLR (SEQ ID NO: 31) (peptide)
peptide: AFIIFWVLR
notes: as for B1
B14: VAFIIFWVA (SEQ ID NO: 44) (peptide)
peptide: VAFIIFWVA
notes: as for B1
B15: VAFIIFWVQ (SEQ ID NO: 50) (peptide)
peptide: VAFIIFWVQ
notes: as for B1
B16: VAFIIFWVH (SEQ ID NO: 37) (peptide)
peptide: VAFIIFWVH
notes: as for B1
B17: FWVKRGRKK (SEQ ID NO: 21) (peptide)
peptide: FWVKRGRKK
notes: synthetic 9-mer
B18: FWVQRGNKK (SEQ ID NO: 87) (peptide)
peptide: FWVQRGNKK
notes: as for B2
B19: FWVARGRKK (SEQ ID NO: 48) (peptide)
peptide: FWVARGRKK
notes: as for B1
B20: FWVLRGRKK (SEQ ID NO: 35) (peptide)
peptide: FWVLRGRKK
notes: as for B1
B21: FWVQRGSKK (SEQ ID NO: 79) (peptide)
peptide: FWVQRGSKK
notes: as for B2
B22: FWVQRGAKK (SEQ ID NO: 83) (peptide)
peptide: FWVQRGAKK
notes: as for B2
B23: FWVHRGRKK (SEQ ID NO: 42) (peptide)
peptide: FWVHRGRKK
notes: as for B1
B24: FWVKRGSKK (SEQ ID NO: 59) (peptide)
peptide: FWVKRGSKK
notes: as for B1
B25: FWVKRGHKK (SEQ ID NO: 67) (peptide)
peptide: FWVKRGHKK
notes: as for B1
B26: FWVKRGNKK (SEQ ID NO: 75) (peptide)
peptide: FWVKRGNKK
notes: as for B1
B27: FWVSRGRKK (SEQ ID NO: 28) (peptide)
peptide: FWVSRGRKK
notes: as for B1
B28: FWVKRGAKK (SEQ ID NO: 71) (peptide)
peptide: FWVKRGAKK
notes: as for B1
B29: FWVQRGRKK (SEQ ID NO: 55) (peptide)
peptide: FWVQRGRKK
notes: as for B1
B30: FWVKRGLKK (SEQ ID NO: 63) (peptide)
peptide: FWVKRGLKK
notes: as for B1
B31: WVKRGRKKL (SEQ ID NO: 22) (peptide)
peptide: WVKRGRKKL
notes: synthetic 9-mer
B32: WVQRGSKKL (SEQ ID NO: 80) (peptide)
peptide: WVQRGSKKL
notes: as for B2
B33: WVHRGRKKL (SEQ ID NO: 43) (peptide)
peptide: WVHRGRKKL
notes: as for B1
B34: WVSRGRKKL (SEQ ID NO: 29) (peptide)
peptide: WVSRGRKKL
notes: as for B1
B35: WVKRGRKKS (SEQ ID NO: 89) (peptide)
peptide: WVKRGRKKS
notes: as for B1
B36: WVKRGLKKL (SEQ ID NO: 64) (peptide)
peptide: WVKRGLKKL
notes: as for B1
B37: WVQRGAKKL (SEQ ID NO: 84) (peptide)
peptide: WVQRGAKKL
notes: as for B2
B38: WVLRGRKKL (SEQ ID NO: 36) (peptide)
peptide: WVLRGRKKL
notes: as for B1

Tests used:
HLA-A*11:01 = target: T1, HLA-A*11:01 (human); experiment: REVEAL MHC-peptide binding assay, recombinant HLA-A*11:01
T1 construct: Recombinant MHC class I molecule without the test peptide; the peptide is the other partner
Protocol: (§1) Specifically, assessment was of a series of overlapping 9-mer peptides derived from the sequence […] (set forth in SEQ ID NO: 7), which contains a portion of the CD28 transmembrane domain and 4-1BB costimulatory domain spanning the junction between the domains (bond joining the two amino acids noted in underline). In addition, a series of overlapping 9-mer peptides of each of a number of different variants of this portion also were assessed, each variant containing a mutation or mutations in this region as described in Example 2.
(§2) The various 9-mer overlapping peptides were synthesized and their purity tested by MALDI-TOF Mass Spectrometry.

HLA-B*08:01 = target: T2, HLA-B*08:01 (human); experiment: REVEAL MHC-peptide binding assay, recombinant HLA-B*08:01
T2 construct: Recombinant MHC class I molecule without the test peptide; the peptide is the other partner
Protocol: as §1, §2

Row | Binder | In Vitro Score (HLA-A*11:01) | In Vitro Score (HLA-B*08:01)
1 | B1 | 19.5 % of positive control peptide | 0.1 % of positive control peptide
2 | B2 | 29 % of positive control peptide | 0 % of positive control peptide
3 | B3 | 16.9 % of positive control peptide | 0.1 % of positive control peptide
4 | B4 | 0.4 % of positive control peptide | 0.1 % of positive control peptide
5 | B5 | 2.4 % of positive control peptide | 0.2 % of positive control peptide
6 | B6 | 1.5 % of positive control peptide | 0.6 % of positive control peptide
7 | B7 | 5.1 % of positive control peptide | 0.4 % of positive control peptide
8 | B8 | 29.3 % of positive control peptide | 0.4 % of positive control peptide
9 | B9 | 29.3 % of positive control peptide | 0 % of positive control peptide
10 | B10 | 103 % of positive control peptide | 0 % of positive control peptide
11 | B11 | 25.9 % of positive control peptide | 1.9 % of positive control peptide
12 | B12 | 15 % of positive control peptide | 0 % of positive control peptide
13 | B13 | 17.2 % of positive control peptide | 0.2 % of positive control peptide
14 | B14 | 2.8 % of positive control peptide | –
15 | B15 | 3.9 % of positive control peptide | –
16 | B16 | 12.3 % of positive control peptide | 0 % of positive control peptide
17 | B17 | 6.5 % of positive control peptide | 0 % of positive control peptide
18 | B18 | 5.9 % of positive control peptide | 0 % of positive control peptide
19 | B19 | – | 0 % of positive control peptide

Row | Binder | In Vitro Score (HLA-A*11:01) | In Vitro Score (HLA-B*08:01)
20 | B20 | 5 % of positive control peptide | 0 % of positive control peptide
21 | B21 | 6.8 % of positive control peptide | 0 % of positive control peptide
22 | B22 | 18.3 % of positive control peptide | 0 % of positive control peptide
23 | B23 | 5.6 % of positive control peptide | 0 % of positive control peptide
24 | B24 | 5.6 % of positive control peptide | 0.1 % of positive control peptide
25 | B25 | 27.6 % of positive control peptide | 0.4 % of positive control peptide
26 | B26 | 7.3 % of positive control peptide | 0.1 % of positive control peptide
27 | B27 | 6.3 % of positive control peptide | 0 % of positive control peptide
28 | B28 | 13.2 % of positive control peptide | 0.3 % of positive control peptide
29 | B29 | 5.7 % of positive control peptide | 1.9 % of positive control peptide
30 | B30 | 25.3 % of positive control peptide | –
31 | B31 | 4.8 % of positive control peptide | 28.5 % of positive control peptide
32 | B32 | 5.9 % of positive control peptide | –
33 | B33 | 5.6 % of positive control peptide | 19.2 % of positive control peptide
34 | B34 | 4.4 % of positive control peptide | 6.2 % of positive control peptide
35 | B35 | 6.7 % of positive control peptide | 4.3 % of positive control peptide
36 | B36 | 22.1 % of positive control peptide | 65.7 % of positive control peptide
37 | B37 | 3.8 % of positive control peptide | 11.4 % of positive control peptide
38 | B38 | 3.2 % of positive control peptide | 4 % of positive control peptide
